Measured values reported in the RNAGym collection of RNA variant scans (doi:10.1073/pnas.2313332121).
This sample holds only a part of the variants without activity.

B1: TPR 5TU (parent)
chain: GGAUCUUCUCGAUCUAACAAAAAAGACAAAUCUGCCACAAAGCUUGAGAGCAUCUUCGGAUGCAGAGGCGGCAGCCUUCGGUGGCGCGAUAGCGCCAACGUUCUCAACUAUGACACGCAAAACGCGUGCUCCGUUGAAUGGAGUUUAUCAUG

Variants of: B1
Experiment: polymerase ribozyme fitness, log enrichment relative to wild type (log ratio); higher = more active; in vitro selection for triplet polymerase activity
Summary of the method: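 Fitness measures genotype enrichment against wild-type enrichment on a logarithmic scale, with inverse-variance-weighted averaging of replicates. The logarithm is base 2, and genotypes were kept only with ≥10 input reads and ≥1 read per output in Illumina sequencing. The sequenced libraries came from one triplicate in vitro selection round, including frozen incubation at −7 °C, of PCR-built, transcribed mutant libraries of each subunit of a heterodimeric triplet polymerase ribozyme.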

Variant	polymerase ribozyme fitness (log ratio)
GGAUCUUCUCGAUCUAACAAACAAGACAAAUCUGCCACCAAGCUUGAGAGCAUCAUCGGAUGCAGAGGCGGCAGCCUUCGGUGGCGCGAUAGCGCCAACGUGCUCAACUAUGACACGCAAAACGCGUGUUCCGUUGAAUGGAGUUUAUCAUG [A22C A39C U55A U102G C129U]	≤ -4.2
GGAUCUUCUCGAUCUAACAAAAAAGACAAAUCUGCCACAAAGCUUGAGAGCAUCUUCGGGUGCAGAGGCGGCGGCCUUCGGUGGCGCGAUAUCGCCAACGUUCUCAACUAUGACACGCAAAACGCGUGCUCCGUUGAAUGGAGUUUAUCAUG [A60G A73G G92U]	0.661
GGAUCUUCUCGAUCUAACAAAAAAGAGAAAUCUGCCACAAAGCUUGAGAGCAUCUUCGGAUGCAGAGGCGGCAGCCUUCGGUGGCGCGAUAGCGCCAACGUUCUCUACUAUGACACGCAAAACGCGUGCUCCGUUGAAUGGAGUUUAUCAUG [C27G A106U]	-3.92
GGAUCUUCUCGAUCUAACAAAAAAGACAAAUCUGCCACAAAGCUUGAGAGCAUCUUCGGAUGCCAAGGCGGCAGCCUUCGGUGGCGCGAUAGCGCCAACGUUCUCAGCUAUUACACGCAAAACACGUGCUCCGUUGAAUGUAGUUUAGCAUG [A64C G65A A107G G112U G124A G141U U148G]	≤ -4.2
GGAUCUUCUCGAUCUAACAAAAAAGACAAAUCUGCCACAAAGCUUGAGAGCAUCUUCGGAUGCAGAGGUGGCAGCCUUCGGUGGGGCGAUAGCGCCAACGUUCUCAACUAUGACACGCAAAACGCGUGCUCCGUUGAAUGAAGUUUAUCAUG [C69U C85G G141A]	-2.66
GGAUCUUCUCGAUCUAACAACAAAGACAAAUCUGCCACAAAUCUUGAGAGCAUCUUCGGAUGCAGAGGGGGCAGCCUUCGGUGGUGCGAUAGCGCCAUCGUUCUCGACUAUGACACGCAUAACGCGUGCUCCGUUGAAUGGAGUUUAUCAUG [A21C G42U C69G C85U A98U A106G A120U]	≤ -4.2
GGAUCUUCUCGAUCUAACAAAAAAGACAAAUCUGCCACACAGCUUGAGAGCAUCUUCGGAUGCAGAGGCGGCAGCCUUCGGUGGCGCGAUAGCGCCAGCGUUCUCAACUAUGACACGCAAAACGCGUGCUUCGAUGAAUGGAGUUUAUCAUG [A40C A98G C131U U134A]	-2.13
GGAUCUUCUCGAUCUAACAAAAAAGACAAAUCUGCCACAAAGCUUGAGAGCAUCAUCGGAUGCAGAGGCGGCACCCUUCGGUGGCGCGAUAGCGCCAACGUUCUCAACUAUGACACGUAAAACGCGUGCUCCGUUGAAUGGAGUUUAUCAUG [U55A G74C C118U]	≤ -4.2
GGAUCUUAUCGAUCUAACAAAAAAGACAAAUCUGCCACAAAGCUUGAGAGCAUCUUUGGAUGCAGACGCGGCAGCCUUCGGUGGCGCGAUAGCGACGACGUUCUCAACUAUGACACGCAAAACGCGUGCUCCGUUGAAUGGAGUUUAUCAAG [C8A C57U G67C C95A A97G U151A]	≤ -4.2
GGAUCUUCUCGAUCUAACAAAAAAGACAAAUCUGCCACAAAGCUUGAGAGCAUCUUCGGAUGCAGAGGCGGCAGCCUUCGAUGGUGCGAUAGCGCCAACGUUCUCAACUAUGACACGCAAAACGCGUGCUCAGUUGAAUGGAGUUUAUCAUG [G81A C85U C132A]	-2.23
GGAUCUUCUCGAUCUAACAAAAAAGACAAAUCUGCCACGAAGCUUGAGAGCAUCUUCGCAUGCAGAGGCGACAGCCUUCGGUGGCGCGAUAGCGCCAACGCUCUCAACUAUGACGCGCAAAACGCGUGCUCCGUUGAAUUGAGUUUAUCAUG [A39G G59C G71A U101C A115G G140U]	≤ -4.2
GGAUCUUCUCGAUCUAACAAAAAAGACAAAUCUGCCACAAAGCUUGAGAGCAUCUUCGGAGGCAGAGGCGGCAGCCUUCGGUGGCGCGAUAGCGUCGACGUUCUAUACUAUGACACGCAAAACGCGUGCUCCGUUGAAUGGAGUUUAUCAUG [U61G C95U A97G C105A A106U]	≤ -4.2
GGAUCUUCUCGAUCUAACAAAAAAGACAAAUCUGCCACAAACCUUGAGAGCAUCUUCGGAUGCAGAGGCGGCAGCCUUGGGUGGCGCGAUAGCGCCAACGUUCUCAACUAUGACACGCAAAACCCGUGCUCCGUUGAAUGGAGUUUAUCAUG [G42C C79G G124C]	≤ -4.2
GGAUCUUCUCGUUCUAACAAAAAAGACUAAUCUGCCACAAUGCUUGAGAGCAGCUGCGGAUGCAGAGGCGGCAGCCUUCGGUGACGCGAUGGGGCCAACGUUCUCAACUAUGACACGCAAAACGCGUGCUCCGUUGAAUUGAGUUUAUCAUG [A12U A28U A41U U53G U56G G84A A91G C93G G140U]	≤ -4.2
GGAUCUUCUCGAUCUAACAAAAAAGACAAAUCUGCCACAAAGCUUGAGAGCAUCUUCGGAUGCAGAGGCGGCAGCCUUCGAUGGCGUGAUAGCGCCAACCUUCUCAACUAUGACACGCAAAACGCGUGCUCCUUUGAAUGUAGUUUAUCAUG [G81A C87U G100C G133U G141U]	≤ -4.2
GGAUCUUCUCGAUCUAACAAAAAAGACAAAUCUGCCACAAAGCUUGAGAGCAUCUUCGGAUGCAGAGGCGGCAGCCUUCGGUGGCGCGAUUGCGCCAAGGUUCUCAACUAUGACACGCAAAACGCGUGCUCCGUUGAAUGGAGUUUAUCAUG [A91U C99G]	≤ -4.2
GGAUCUUCUCGAUCUAACAAAAAAGACAAAUCUGCCACAAAGCUUGAGAGCAUCUUCGGAUGCAGAGGCGGCAGCCUUCGGUGGUGCGAUAGCGCCAACGUUCUCAACUAUGACAUGCAAAACGCGUGCUCCGUUGAAUGGAGUUUAUCAUG [C85U C116U]	-0.233
GGAUCUUCUCGAUCUAACAAAAAAGACAAAUCUGCCACAAAGUUUGAGAGCAUUUGCGGAUGCAGAGGCGGCAGCCUCCGGUGGGGCGAUAGGGCCAACGUUCUCAACUAUGACACGCAAAACGCGUGCUCCAUUUAAUUGAGUUUAUCAUG [C43U C54U U56G U78C C85G C93G G133A G136U G140U]	≤ -4.2
GGAUCUUCCGGAUCUAACAAAAAAGACAAAUCUGCGACAAAGCUUGAGAGCAUCAUCGGAUGCAGAGGCGGCAGCCUUCGGUGACGCGAUAGCGCCAACGUUCUCAACUAUGACACGCAAAACGCAUGCUCCGUUGAAUGGAGUUUAUCAUG [U9C C10G C36G U55A G84A G126A]	≤ -4.2
